# T1: APBA1_1, Q02410
# T1 sequence (Q02410 651-752, limits assumed, looked up): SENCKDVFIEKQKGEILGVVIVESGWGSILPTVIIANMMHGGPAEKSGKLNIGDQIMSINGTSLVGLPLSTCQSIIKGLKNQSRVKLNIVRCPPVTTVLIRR
# T2: APBA1_2, Q02410
# T2 sequence (Q02410 742-832, limits assumed, looked up): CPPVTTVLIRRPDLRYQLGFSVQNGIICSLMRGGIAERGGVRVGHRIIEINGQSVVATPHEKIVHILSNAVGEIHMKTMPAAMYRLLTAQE
# T3: APBA2_1, Q99767
# T3 sequence (Q99767 563-664, limits assumed, looked up): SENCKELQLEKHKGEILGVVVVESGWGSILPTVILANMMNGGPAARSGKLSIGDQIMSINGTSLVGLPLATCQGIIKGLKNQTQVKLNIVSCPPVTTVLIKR
# T4: DLG3_2, Q92796
# T4 sequence (Q92796 221-321, limits assumed, looked up): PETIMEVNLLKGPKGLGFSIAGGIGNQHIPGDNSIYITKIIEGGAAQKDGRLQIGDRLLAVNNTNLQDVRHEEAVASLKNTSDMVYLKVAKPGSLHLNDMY
# T5: GRIP1_3, Q9Y3R0
# T5 sequence (Q9Y3R0 247-346, limits assumed, looked up): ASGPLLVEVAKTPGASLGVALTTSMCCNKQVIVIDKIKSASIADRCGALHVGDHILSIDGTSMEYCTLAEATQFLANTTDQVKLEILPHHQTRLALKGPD
# T6: GRIP1_5, Q9Y3R0
# T6 sequence (Q9Y3R0 568-668, limits assumed, looked up): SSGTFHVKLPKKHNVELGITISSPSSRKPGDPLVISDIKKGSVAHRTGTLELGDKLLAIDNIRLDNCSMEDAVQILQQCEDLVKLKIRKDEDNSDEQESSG
# T7: LNX2_2, Q8N448
# T7 sequence (Q8N448 334-432, limits assumed, looked up): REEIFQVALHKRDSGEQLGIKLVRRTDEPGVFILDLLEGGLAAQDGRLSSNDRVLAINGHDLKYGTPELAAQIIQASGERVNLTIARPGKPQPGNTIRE
# T8: MPP2, Q14168
# T8 sequence (Q14168 180-250, limits assumed, looked up): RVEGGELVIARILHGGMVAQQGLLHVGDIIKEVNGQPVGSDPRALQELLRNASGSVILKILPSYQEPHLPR
# T9: NHERF3_1, Q5T2W1
# T9 sequence (Q5T2W1 4-100, limits assumed, looked up): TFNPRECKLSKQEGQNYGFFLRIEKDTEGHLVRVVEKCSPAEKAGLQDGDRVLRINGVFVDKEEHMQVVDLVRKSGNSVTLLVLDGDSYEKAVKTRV
# T10: NHERF3_3, Q5T2W1
# T10 sequence (Q5T2W1 238-333, limits assumed, looked up): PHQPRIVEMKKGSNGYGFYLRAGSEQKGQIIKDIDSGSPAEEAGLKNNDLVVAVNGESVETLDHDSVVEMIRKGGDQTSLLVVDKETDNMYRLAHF
# T11: RHPN1, Q8TCX5
# T11 sequence (Q8TCX5 508-602, limits assumed, looked up): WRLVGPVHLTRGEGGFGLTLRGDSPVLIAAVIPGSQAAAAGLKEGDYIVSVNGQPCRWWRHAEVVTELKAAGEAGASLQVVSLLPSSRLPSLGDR
# T12: SYNJ2BP, P57105
# T12 sequence (P57105 8-110, limits assumed, looked up): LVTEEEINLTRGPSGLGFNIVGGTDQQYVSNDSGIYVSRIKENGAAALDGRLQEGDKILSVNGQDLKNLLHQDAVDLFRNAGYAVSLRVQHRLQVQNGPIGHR
# B1: EXOC4, Q96A65 (peptide)
# chain: ATKDKKITTV
# B2: FKBP4, Q02790 (peptide)
# chain: GSQSQVETEA
# B3: CRHR1, P34998 (peptide)
# chain: FHSIKQSTAV
# Biological target: T1, APBA1_1, Q02410
# Assay: holdup assay
# Parameters: key: below the threshold = too weak to quantify, mostly under pKd 3.1 to 4
# Settings: plain residues with an end cap or a label only (N-terminal biotin on a linker: ado-ado)
row,Binder,pKd
1,B1,below the threshold
2,B2,below the threshold
3,B3,below the threshold

# Biological target: T2, APBA1_2, Q02410
# Assay: holdup assay
# Parameters: key: below the threshold = too weak to quantify, mostly under pKd 3.1 to 4
# Settings: plain residues with an end cap or a label only (N-terminal biotin on a linker: ado-ado)
row,Binder,pKd
1,B1,3.82
2,B2,below the threshold
3,B3,4.15

# Biological target: T3, APBA2_1, Q99767
# Assay: holdup assay
# Parameters: key: below the threshold = too weak to quantify, mostly under pKd 3.1 to 4
# Settings: plain residues with an end cap or a label only (N-terminal biotin on a linker: ado-ado)
row,Binder,pKd
1,B1,below the threshold
2,B2,below the threshold
3,B3,below the threshold

# Biological target: DLG2_3, Q15700
# Assay: holdup assay
# Parameters: key: below the threshold = too weak to quantify, mostly under pKd 3.1 to 4
# Settings: plain residues with an end cap or a label only (N-terminal biotin on a linker: ado-ado)
row,Binder,pKd
1,B1,4.58
2,B2,3.82
3,B3,4.54

# Biological target: T4, DLG3_2, Q92796
# Assay: holdup assay
# Parameters: key: below the threshold = too weak to quantify, mostly under pKd 3.1 to 4
# Settings: plain residues with an end cap or a label only (N-terminal biotin on a linker: ado-ado)
row,Binder,pKd
1,B1,5.28
2,B2,4.2
3,B3,4.61

# Biological target: DLG4_1, P78352
# Assay: holdup assay
# Parameters: key: below the threshold = too weak to quantify, mostly under pKd 3.1 to 4
# Settings: plain residues with an end cap or a label only (N-terminal biotin on a linker: ado-ado)
# DLG4_1, P78352, sequence (P78352 62-152): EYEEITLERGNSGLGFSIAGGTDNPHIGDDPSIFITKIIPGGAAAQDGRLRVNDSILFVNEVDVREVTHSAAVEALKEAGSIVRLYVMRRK
row,Binder,pKd
1,B1,5.25
2,B2,below the threshold
3,B3,4.56

# Biological target: DLG4_2, P78352
# Assay: holdup assay
# Parameters: key: below the threshold = too weak to quantify, mostly under pKd 3.1 to 4
# Settings: plain residues with an end cap or a label only (N-terminal biotin on a linker: ado-ado)
# DLG4_2, P78352, sequence (P78352 155-259): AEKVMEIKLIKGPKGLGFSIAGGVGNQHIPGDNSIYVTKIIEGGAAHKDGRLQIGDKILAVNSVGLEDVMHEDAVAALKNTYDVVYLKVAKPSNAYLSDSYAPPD
row,Binder,pKd
1,B1,5.85
2,B2,3.59
3,B3,4.93

# Biological target: FRMPD3, Q5JV73
# Assay: holdup assay
# Parameters: key: below the threshold = too weak to quantify, mostly under pKd 3.1 to 4
# Settings: plain residues with an end cap or a label only (N-terminal biotin on a linker: ado-ado)
# FRMPD3, Q5JV73, sequence (Q5JV73 12-100): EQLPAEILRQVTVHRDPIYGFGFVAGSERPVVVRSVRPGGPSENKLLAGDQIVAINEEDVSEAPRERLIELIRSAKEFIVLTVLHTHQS
row,Binder,pKd
1,B1,below the threshold
2,B2,below the threshold
3,B3,below the threshold

# Biological target: GRID2IP_2, A4D2P6
# Assay: holdup assay
# Parameters: key: below the threshold = too weak to quantify, mostly under pKd 3.1 to 4
# Settings: plain residues with an end cap or a label only (N-terminal biotin on a linker: ado-ado)
# GRID2IP_2, A4D2P6, sequence (A4D2P6 272-370): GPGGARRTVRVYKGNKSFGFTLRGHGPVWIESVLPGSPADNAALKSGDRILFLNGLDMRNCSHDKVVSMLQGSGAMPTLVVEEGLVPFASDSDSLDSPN
row,Binder,pKd
1,B1,3.98
2,B2,3.68
3,B3,4.34

# Biological target: T5, GRIP1_3, Q9Y3R0
# Assay: holdup assay
# Parameters: key: below the threshold = too weak to quantify, mostly under pKd 3.1 to 4
# Settings: plain residues with an end cap or a label only (N-terminal biotin on a linker: ado-ado)
row,Binder,pKd
1,B1,below the threshold
2,B2,below the threshold
3,B3,below the threshold

# Biological target: T6, GRIP1_5, Q9Y3R0
# Assay: holdup assay
# Parameters: key: below the threshold = too weak to quantify, mostly under pKd 3.1 to 4
# Settings: plain residues with an end cap or a label only (N-terminal biotin on a linker: ado-ado)
row,Binder,pKd
1,B1,below the threshold
2,B2,below the threshold
3,B3,below the threshold

# Biological target: GRIP2_4, Q9C0E4
# Assay: holdup assay
# Parameters: key: below the threshold = too weak to quantify, mostly under pKd 3.1 to 4
# Settings: plain residues with an end cap or a label only (N-terminal biotin on a linker: ado-ado)
# GRIP2_4, Q9C0E4, sequence (Q9C0E4 446-548): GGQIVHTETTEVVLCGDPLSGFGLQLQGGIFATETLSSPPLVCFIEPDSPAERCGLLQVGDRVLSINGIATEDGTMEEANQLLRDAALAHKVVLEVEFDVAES
row,Binder,pKd
1,B1,below the threshold
2,B2,below the threshold
3,B3,below the threshold

# Biological target: GRIP2_5, Q9C0E4
# Assay: holdup assay
# Parameters: key: below the threshold = too weak to quantify, mostly under pKd 3.1 to 4
# Settings: plain residues with an end cap or a label only (N-terminal biotin on a linker: ado-ado)
# GRIP2_5, Q9C0E4, sequence (Q9C0E4 544-642): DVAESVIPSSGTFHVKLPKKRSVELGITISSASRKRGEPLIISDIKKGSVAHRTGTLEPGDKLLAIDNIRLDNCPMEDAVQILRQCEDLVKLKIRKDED
row,Binder,pKd
1,B1,3.49
2,B2,below the threshold
3,B3,below the threshold

# Biological target: HTRA1, Q92743
# Assay: holdup assay
# Parameters: key: below the threshold = too weak to quantify, mostly under pKd 3.1 to 4
# Settings: plain residues with an end cap or a label only (N-terminal biotin on a linker: ado-ado)
# HTRA1, Q92743, sequence (Q92743 360-477): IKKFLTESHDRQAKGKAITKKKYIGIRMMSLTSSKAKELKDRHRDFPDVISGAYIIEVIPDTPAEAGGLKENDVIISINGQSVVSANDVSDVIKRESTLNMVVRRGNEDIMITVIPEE
row,Binder,pKd
1,B1,4.6
2,B2,3.85
3,B3,below the threshold

# Biological target: IL16_3, Q14005
# Assay: holdup assay
# Parameters: key: below the threshold = too weak to quantify, mostly under pKd 3.1 to 4
# Settings: plain residues with an end cap or a label only (N-terminal biotin on a linker: ado-ado)
# IL16_3, Q14005, sequence (Q14005 1107-1207): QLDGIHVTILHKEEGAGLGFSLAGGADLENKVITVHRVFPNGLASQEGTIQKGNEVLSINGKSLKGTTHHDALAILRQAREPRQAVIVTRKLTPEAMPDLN
row,Binder,pKd
1,B1,below the threshold
2,B2,below the threshold
3,B3,below the threshold

# Biological target: Inadl_8, Q8NI35
# Assay: holdup assay
# Parameters: key: below the threshold = too weak to quantify, mostly under pKd 3.1 to 4
# Settings: plain residues with an end cap or a label only (N-terminal biotin on a linker: ado-ado)
# Inadl_8, Q8NI35, sequence (Q8NI35 1425-1530): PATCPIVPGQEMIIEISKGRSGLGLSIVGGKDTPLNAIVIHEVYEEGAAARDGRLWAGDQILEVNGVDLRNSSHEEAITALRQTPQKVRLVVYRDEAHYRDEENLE
row,Binder,pKd
1,B1,4.42
2,B2,below the threshold
3,B3,3.87

# Biological target: T7, LNX2_2, Q8N448
# Assay: holdup assay
# Parameters: key: below the threshold = too weak to quantify, mostly under pKd 3.1 to 4
# Settings: plain residues with an end cap or a label only (N-terminal biotin on a linker: ado-ado)
row,Binder,pKd
1,B1,5.24
2,B2,below the threshold
3,B3,4.16

# Biological target: MAGI1_1, Q96QZ7
# Assay: holdup assay
# Parameters: key: below the threshold = too weak to quantify, mostly under pKd 3.1 to 4
# Settings: plain residues with an end cap or a label only (N-terminal biotin on a linker: ado-ado)
# MAGI1_1, Q96QZ7, sequence (Q96QZ7 1-106): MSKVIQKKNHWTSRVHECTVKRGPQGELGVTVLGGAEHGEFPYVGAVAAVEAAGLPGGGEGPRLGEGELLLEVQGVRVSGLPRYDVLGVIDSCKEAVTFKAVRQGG
row,Binder,pKd
1,B1,3.61
2,B2,below the threshold
3,B3,below the threshold

# Biological target: T8, MPP2, Q14168
# Assay: holdup assay
# Parameters: key: below the threshold = too weak to quantify, mostly under pKd 3.1 to 4
# Settings: plain residues with an end cap or a label only (N-terminal biotin on a linker: ado-ado)
row,Binder,pKd
1,B1,below the threshold
2,B2,below the threshold
3,B3,below the threshold

# Biological target: T9, NHERF3_1, Q5T2W1
# Assay: holdup assay
# Parameters: key: below the threshold = too weak to quantify, mostly under pKd 3.1 to 4
# Settings: plain residues with an end cap or a label only (N-terminal biotin on a linker: ado-ado)
row,Binder,pKd
1,B1,below the threshold
2,B2,below the threshold
3,B3,5.52

# Biological target: T10, NHERF3_3, Q5T2W1
# Assay: holdup assay
# Parameters: key: below the threshold = too weak to quantify, mostly under pKd 3.1 to 4
# Settings: plain residues with an end cap or a label only (N-terminal biotin on a linker: ado-ado)
row,Binder,pKd
1,B1,below the threshold
2,B2,below the threshold
3,B3,below the threshold

# Biological target: NOS1, P29475
# Assay: holdup assay
# Parameters: key: below the threshold = too weak to quantify, mostly under pKd 3.1 to 4
# Settings: plain residues with an end cap or a label only (N-terminal biotin on a linker: ado-ado)
# NOS1, P29475, sequence (P29475 9-101): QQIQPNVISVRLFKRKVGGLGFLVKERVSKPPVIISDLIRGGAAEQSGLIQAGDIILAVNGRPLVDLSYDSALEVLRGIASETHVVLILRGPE
row,Binder,pKd
1,B1,3.69
2,B2,below the threshold
3,B3,4.19

# Biological target: PDLIM1, O00151
# Assay: holdup assay
# Parameters: key: below the threshold = too weak to quantify, mostly under pKd 3.1 to 4
# Settings: plain residues with an end cap or a label only (N-terminal biotin on a linker: ado-ado)
# PDLIM1, O00151, sequence (O00151 1-87): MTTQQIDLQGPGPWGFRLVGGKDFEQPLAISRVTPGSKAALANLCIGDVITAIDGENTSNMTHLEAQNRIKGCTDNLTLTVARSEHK
row,Binder,pKd
1,B1,3.49
2,B2,below the threshold
3,B3,below the threshold

# Biological target: PICK1, Q9NRD5
# Assay: holdup assay
# Parameters: key: below the threshold = too weak to quantify, mostly under pKd 3.1 to 4
# Settings: plain residues with an end cap or a label only (N-terminal biotin on a linker: ado-ado)
# PICK1, Q9NRD5, sequence (Q9NRD5 17-115): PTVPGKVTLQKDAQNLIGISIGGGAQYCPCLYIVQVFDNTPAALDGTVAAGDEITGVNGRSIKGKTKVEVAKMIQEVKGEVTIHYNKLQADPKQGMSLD
row,Binder,pKd
1,B1,below the threshold
2,B2,below the threshold
3,B3,below the threshold

# Biological target: T11, RHPN1, Q8TCX5
# Assay: holdup assay
# Parameters: key: below the threshold = too weak to quantify, mostly under pKd 3.1 to 4
# Settings: plain residues with an end cap or a label only (N-terminal biotin on a linker: ado-ado)
row,Binder,pKd
1,B1,4.08
2,B2,3.77
3,B3,3.79

# Biological target: T12, SYNJ2BP, P57105
# Assay: holdup assay
# Parameters: key: below the threshold = too weak to quantify, mostly under pKd 3.1 to 4
# Settings: plain residues with an end cap or a label only (N-terminal biotin on a linker: ado-ado)
row,Binder,pKd
1,B1,4.14
2,B2,below the threshold
3,B3,5.21
